B1: CPEB3 Ribozyme (parent)
chain: GGGGGCCACAGCAGAAGCGUUCACGUCGCGGCCCCUGUCAGAUUCUGGUGAAUCUGCGAAUUCUGCUGU

Variants of: B1
Assay: self-cleavage, relative activity (ratio to wild type); higher = more cleavage; co-transcriptional
G19U U26G gave a self-cleavage of 0.256.
In the case of G19U U26C, the self-cleavage is reported as 0.256.
For G19U U26A, the self-cleavage was 0.272.
G19U U69C gave a self-cleavage of 0.925.
G19U U69A gave a self-cleavage of 0.739.
G19U G28A showed a self-cleavage of 0.122.
With G19U G28U the self-cleavage was 0.116.
Variant G19A C45G has a self-cleavage of 0.194.
For U20A A40G, the self-cleavage was 0.11.
For C18U U46G, the self-cleavage was 0.854.
For C18U U46C, the self-cleavage was 0.808.
With C18U U46A the self-cleavage was 0.964.
With G19U C35G the self-cleavage was 0.199.
Work on G19C G65A yielded a self-cleavage of 0.127.
G19C G65C showed a self-cleavage of 0.12.
G19C G65U showed a self-cleavage of 0.133.
G19U C24G showed a self-cleavage of 0.121.
Work on U20A A42G yielded a self-cleavage of 0.0639.
In the case of U20A A42C, the self-cleavage is reported as 0.0988.
With G19A G48U the self-cleavage was 0.227.
In the case of G19A G48A, the self-cleavage is reported as 0.144.
For G19A C27A, the self-cleavage was 0.143.
For G19A C27U, the self-cleavage was 0.768.
In the case of G19A C27G, the self-cleavage is reported as 0.656.
G19C U69G showed a self-cleavage of 0.231.
Variant G19C U69C has a self-cleavage of 0.357.
For G19C U44A, the self-cleavage was 0.185.
In the case of G19C U44G, the self-cleavage is reported as 0.164.
For G19U G48U, the self-cleavage was 0.681.
For G19U G50A, the self-cleavage was 0.543.
With G19U G50C the self-cleavage was 0.458.
Work on G19A A40C yielded a self-cleavage of 0.123.
G19A A40U showed a self-cleavage of 0.147.
G19A G68U showed a self-cleavage of 0.232.
G19A U53A showed a self-cleavage of 0.174.
G19U C22G gave a self-cleavage of 0.164.
G19U C22U showed a self-cleavage of 0.107.
For G19U C22A, the self-cleavage was 0.14.
G19C A59G showed a self-cleavage of 0.175.
Variant G19A A42U has a self-cleavage of 0.191.
G19U G65C showed a self-cleavage of 0.287.
For G19U G65U, the self-cleavage was 0.148.
Work on G19U G65A yielded a self-cleavage of 0.254.
G19U U64C showed a self-cleavage of 0.249.
For G19U U64G, the self-cleavage was 0.192.
G19U U64A showed a self-cleavage of 0.233.
G19A C34U gave a self-cleavage of 0.181.
For G19A C34A, the self-cleavage was 0.201.
For G19U G31C, the self-cleavage was 0.163.
G19U G31U showed a self-cleavage of 0.168.
For G19U G31A, the self-cleavage was 0.258.
Variant G19U U21C has a self-cleavage of 0.218.
Work on G19A G30A yielded a self-cleavage of 0.144.
For G19A G30C, the self-cleavage was 0.166.
For G19A G30U, the self-cleavage was 0.147.
Variant G19A U26A has a self-cleavage of 0.19.
In the case of G19A C66A, the self-cleavage is reported as 0.145.
Variant G19A C66U has a self-cleavage of 0.162.
G19A C66G gave a self-cleavage of 0.146.
For G19C A40U, the self-cleavage was 0.0999.
G19C A40G showed a self-cleavage of 0.194.
In the case of G19U G25U, the self-cleavage is reported as 0.14.
G19U G25A showed a self-cleavage of 0.177.
For G19U G25C, the self-cleavage was 0.122.
In the case of G19C U46A, the self-cleavage is reported as 0.177.
Variant G19C U46C has a self-cleavage of 0.159.
Variant U20A has a self-cleavage of 0.157.
In the case of G19C C39A, the self-cleavage is reported as 0.155.
Work on G19A A59C yielded a self-cleavage of 0.194.
With G19A A59G the self-cleavage was 0.188.
In the case of G19A A51U, the self-cleavage is reported as 0.245.
Work on G19A G28A yielded a self-cleavage of 0.152.
G19A G28C showed a self-cleavage of 0.216.
Variant G19A G28U has a self-cleavage of 0.132.
For G19U G58A, the self-cleavage was 0.352.
With G19U G58U the self-cleavage was 0.553.
For G19U U49G, the self-cleavage was 0.459.
In the case of G19U U49C, the self-cleavage is reported as 0.594.
Work on G19A U46C yielded a self-cleavage of 0.103.
Work on G19A U46G yielded a self-cleavage of 0.151.
Variant G19A C39U has a self-cleavage of 0.158.
With G19A C39A the self-cleavage was 0.145.
G19C G41C showed a self-cleavage of 0.17.
G19C G41A gave a self-cleavage of 0.142.
With G19A U49A the self-cleavage was 0.2.
Work on G19A U49C yielded a self-cleavage of 0.163.
In the case of G19A U49G, the self-cleavage is reported as 0.181.
G19C U20A showed a self-cleavage of 0.109.
G19C U20C showed a self-cleavage of 0.19.
G19C U20G showed a self-cleavage of 0.126.
G19C G50U gave a self-cleavage of 0.186.
For G19C G50A, the self-cleavage was 0.147.
With C18U U69C the self-cleavage was 1.04.
In the case of C18U U69G, the self-cleavage is reported as 1.
Work on G19C G68U yielded a self-cleavage of 0.13.
Work on G19C G68C yielded a self-cleavage of 0.187.
G19C G68A showed a self-cleavage of 0.201.
For G19U A59U, the self-cleavage was 0.158.
For G19U A59G, the self-cleavage was 0.66.
Variant G19A A52C has a self-cleavage of 0.183.
G19A A52U showed a self-cleavage of 0.156.
Variant G19A A52G has a self-cleavage of 0.204.
G19A C29G showed a self-cleavage of 0.153.
G19A C29U showed a self-cleavage of 0.0995.
Work on G19C U64C yielded a self-cleavage of 0.123.
For G19A G47C, the self-cleavage was 0.25.
G19C C57A gave a self-cleavage of 0.158.
G19C C57G gave a self-cleavage of 0.132.
Variant G19A C54U has a self-cleavage of 0.134.
G19A C54A gave a self-cleavage of 0.163.
Variant G19C C22A has a self-cleavage of 0.0962.
Variant G19C C22G has a self-cleavage of 0.156.
In the case of G19A U38A, the self-cleavage is reported as 0.165.
Variant G19A U38C has a self-cleavage of 0.16.
G19U G47U showed a self-cleavage of 0.64.
Variant G19U C32G has a self-cleavage of 0.157.
In the case of G19U C32A, the self-cleavage is reported as 0.281.
Variant G19A U36A has a self-cleavage of 0.0999.
With G19A U36G the self-cleavage was 0.165.
C18U U38G showed a self-cleavage of 0.116.
In the case of C18U U38A, the self-cleavage is reported as 0.671.
Work on C18U U38C yielded a self-cleavage of 0.694.
G19C G56A showed a self-cleavage of 0.16.
For G19C G56C, the self-cleavage was 0.169.
Work on G19A U44A yielded a self-cleavage of 0.172.
G19A U44G showed a self-cleavage of 0.158.
G19C G30A gave a self-cleavage of 0.159.
Variant G19C G30C has a self-cleavage of 0.129.
For G19A U64C, the self-cleavage was 0.159.
With G19U G30A the self-cleavage was 0.143.
Variant G19U G30U has a self-cleavage of 0.166.
Work on G19C U49C yielded a self-cleavage of 0.104.
G19C U49G showed a self-cleavage of 0.182.
G19U A42C showed a self-cleavage of 0.269.
G19U A42G showed a self-cleavage of 0.326.
With G19U A42U the self-cleavage was 0.327.
G19A U69A showed a self-cleavage of 0.184.
G19U C57U showed a self-cleavage of 0.21.
In the case of G19U C57G, the self-cleavage is reported as 0.218.
For C18U U49G, the self-cleavage was 0.894.
G19A G37U showed a self-cleavage of 0.127.
Work on G19A G50A yielded a self-cleavage of 0.197.
In the case of G19A G50C, the self-cleavage is reported as 0.204.
Work on G19U G56A yielded a self-cleavage of 0.301.
G19U G56C showed a self-cleavage of 0.222.
Variant G19U U20C has a self-cleavage of 0.166.
G19U U20A showed a self-cleavage of 0.0978.
For U20A A23C, the self-cleavage was 0.149.
For G19U U43A, the self-cleavage was 0.202.
For G19U U43G, the self-cleavage was 0.223.
In the case of G19U U43C, the self-cleavage is reported as 0.333.
In the case of G19U U46G, the self-cleavage is reported as 0.596.
In the case of G19U U46C, the self-cleavage is reported as 0.499.
For G19U U46A, the self-cleavage was 0.591.
G19U U55C gave a self-cleavage of 0.191.
Work on G19C U67A yielded a self-cleavage of 0.0765.
G19C U67G showed a self-cleavage of 0.159.
Work on G19U C33G yielded a self-cleavage of 0.203.
For G19U C33U, the self-cleavage was 0.519.
Variant G19U C33A has a self-cleavage of 0.101.
In the case of C18U U61G, the self-cleavage is reported as 0.312.
Variant C18U U61A has a self-cleavage of 0.467.
With C18U U61C the self-cleavage was 0.267.
Variant G19U C29A has a self-cleavage of 0.161.
Work on G19U C29G yielded a self-cleavage of 0.175.
G19C G47U showed a self-cleavage of 0.152.
Variant G19C G47C has a self-cleavage of 0.147.

Reference: the RNAGym collection of RNA variant scans (doi:10.7554/elife.80360)
